Source: the Human Domainome abundance scans (Beltran et al. 2025)
± gives the uncertainty stated by the source.

B1: Heterogeneous nuclear ribonucleoprotein U-like protein 2, residues 1 to 40; numbered along this chain, Q1KMD3 (parent)
chain: MEVKRLKVTELRSELQRRGLDSRGLKVDLAQRLQEALDAE

Variants of: B1
Test: abundance fitness (aPCA) (normalised: wild type 0, dead -1); higher = more abundant; growth selection in yeast, the domain comes from the species named
Settings: Homo sapiens

| Variant | abundance fitness |
| --- | --- |
| L11T | -0.436 ± 0.082 |
| L11S | -0.438 ± 0.059 |
| L11I | -0.109 ± 0.09 |
| L11K | -0.495 ± 0.074 |
| L11V | -0.375 ± 0.059 |
| L11N | -0.435 ± 0.091 |
| L11P | -0.584 ± 0.065 |
| L11R | -0.641 ± 0.049 |
| L11W | -1.08 ± 0.071 |
| L11M | -0.055 ± 0.062 |
| L11Q | -0.448 ± 0.071 |
| V27Y | -0.413 ± 0.14 |
| V27P | 0.142 ± 0.11 |
| V27W | -0.339 ± 0.084 |
| V27D | 0.037 ± 0.074 |
| V27L | -0.087 ± 0.065 |
| V27N | 0.049 ± 0.13 |
| V27I | -0.047 ± 0.071 |
| V27H | -0.009 ± 0.12 |
| V27Q | -0.246 ± 0.17 |
| V27G | -0.014 ± 0.05 |
| V27M | 0.002 ± 0.088 |
| V27C | 0.09 ± 0.11 |
| V27E | 0.038 ± 0.058 |

| Variant | abundance fitness |
| --- | --- |
| V27K | 0.087 ± 0.1 |
| V27S | 0.086 ± 0.063 |
| V27R | 0.049 ± 0.051 |
| V27T | -0.063 ± 0.078 |
| L20C | -0.265 ± 0.062 |
| L20T | -0.563 ± 0.067 |
| L20W | -0.624 ± 0.071 |
| L20N | -0.77 ± 0.11 |
| L20I | -0.151 ± 0.072 |
| L20D | -0.304 ± 0.067 |
| L20E | -0.383 ± 0.057 |
| L20G | -0.51 ± 0.052 |
| L20V | -0.358 ± 0.054 |
| L20M | -0.033 ± 0.076 |
| L20F | -0.353 ± 0.089 |
| L20Y | -0.462 ± 0.081 |
| L20A | -0.352 ± 0.059 |
| L20S | -0.496 ± 0.061 |
| L20H | -0.572 ± 0.13 |
| L20R | -0.558 ± 0.05 |
| L20Q | -0.364 ± 0.082 |
| L20P | -0.65 ± 0.07 |
| L29F | -0.603 ± 0.16 |
| L29T | -0.083 ± 0.17 |

| Variant | abundance fitness |
| --- | --- |
| L29P | -0.299 ± 0.067 |
| L29Q | -0.285 ± 0.07 |
| L29R | -0.356 ± 0.063 |
| L29S | -0.201 ± 0.073 |
| L29D | -0.104 ± 0.074 |
| L29I | -0.189 ± 0.075 |
| L29Y | -0.486 ± 0.098 |
| L29W | -0.853 ± 0.069 |
| L29N | -0.352 ± 0.1 |
| L29E | -0.174 ± 0.068 |
| L29K | -0.31 ± 0.09 |
| L29G | -0.188 ± 0.051 |
| L29A | -0.212 ± 0.05 |
| L29C | -0.137 ± 0.063 |
| L29H | -0.346 ± 0.098 |
| Q16A | -0.047 ± 0.053 |
| Q16D | -0.079 ± 0.082 |
| Q16T | -0.03 ± 0.061 |
| Q16E | 0.098 ± 0.055 |
| Q16R | -0.104 ± 0.054 |
| Q16G | -0.171 ± 0.048 |
| Q16I | 0.169 ± 0.12 |
| Q16S | -0.032 ± 0.071 |
| Q16M | -0.013 ± 0.079 |

| Variant | abundance fitness |
| --- | --- |
| Q16C | -0.299 ± 0.09 |
| Q16H | -0.178 ± 0.24 |
| Q16V | -0.077 ± 0.059 |
| Q16Y | -0.405 ± 0.39 |
| Q16N | -0.074 ± 0.13 |
| Q16W | -0.539 ± 0.058 |
| Q16L | -0.09 ± 0.068 |
| D21T | -0.217 ± 0.099 |
| D21M | -0.453 ± 0.069 |
| D21F | -0.591 ± 0.22 |
| D21C | -0.068 ± 0.097 |
| D21H | -0.422 ± 0.12 |
| D21W | -0.74 ± 0.064 |
| D21R | -0.645 ± 0.053 |
| D21L | -0.557 ± 0.059 |
| D21I | -0.871 ± 0.14 |
| D21Y | -0.204 ± 0.35 |
| D21G | -0.572 ± 0.055 |
| D21A | -0.41 ± 0.064 |
| D21K | -0.428 ± 0.13 |
| R32C | -0.441 ± 0.066 |
| R32M | -0.567 ± 0.067 |
| R32H | -0.399 ± 0.076 |
| R32A | -0.394 ± 0.062 |

| Variant | abundance fitness |
| --- | --- |
| R32F | -1.02 ± 0.17 |
| R32L | -0.854 ± 0.063 |
| R32D | -0.076 ± 0.1 |
| R32E | -0.221 ± 0.077 |
| R32N | -0.395 ± 0.089 |
| R32I | -1.08 ± 0.2 |
| R32G | -0.339 ± 0.051 |
| R23N | 0.127 ± 0.07 |
| R23F | -0.137 ± 0.079 |
| R23C | 0.062 ± 0.078 |
| R23E | 0.166 ± 0.065 |
| R23T | 0.225 ± 0.066 |
| R23D | 0.136 ± 0.067 |
| R23L | -0.057 ± 0.056 |
| R23H | 0.092 ± 0.16 |
| R23S | 0.167 ± 0.077 |
| R23M | -0.232 ± 0.13 |
| R23G | 0.091 ± 0.05 |
| R23V | -0.019 ± 0.058 |
| R23Y | 0.041 ± 0.24 |
| R23K | 0.082 ± 0.073 |
| R23P | -0.6 ± 0.096 |
| R23Q | 0.114 ± 0.054 |
| R23W | -0.185 ± 0.061 |

| Variant | abundance fitness |
| --- | --- |
| R23A | 0.158 ± 0.057 |
| Q31L | 0.009 ± 0.054 |
| Q31K | 0.112 ± 0.067 |
| Q31I | 0.012 ± 0.077 |
| Q31S | 0.058 ± 0.057 |
| Q31E | 0.141 ± 0.078 |
| Q31H | -0.418 ± 0.13 |
| Q31F | -0.197 ± 0.079 |
| Q31T | 0.085 ± 0.069 |
| Q31W | -0.176 ± 0.054 |
| Q31N | 0.252 ± 0.13 |
| Q31P | -0.121 ± 0.062 |
| Q31A | 0.032 ± 0.058 |
| Q31V | -0.003 ± 0.055 |
| Q31C | -0.016 ± 0.083 |
| Q31M | -0.041 ± 0.07 |
| Q31G | -0.055 ± 0.049 |
| L15G | -0.614 ± 0.049 |
| L15C | -0.25 ± 0.079 |
| L15P | -0.312 ± 0.075 |
| L15R | -0.815 ± 0.054 |
| L15Q | -0.405 ± 0.073 |
| L15A | -0.494 ± 0.053 |
| L15Y | -0.582 ± 0.12 |

| Variant | abundance fitness |
| --- | --- |
| L15E | -0.491 ± 0.054 |
| L15W | -1.04 ± 0.068 |
| L15K | -0.651 ± 0.095 |
| L15T | -0.586 ± 0.13 |
| L15M | -0.389 ± 0.069 |
| L15D | -0.344 ± 0.069 |
| S13P | -0.385 ± 0.1 |
| S13I | 0.039 ± 0.1 |
| S13Q | 0.146 ± 0.062 |
| S13V | -0.006 ± 0.056 |
| S13R | 0.055 ± 0.05 |
| S13N | 0.016 ± 0.087 |
| S13K | 0.085 ± 0.07 |
| S13F | -0.04 ± 0.13 |
| S13L | 0.093 ± 0.058 |
| S13T | 0.022 ± 0.059 |
| S13M | -0.058 ± 0.15 |
| S13Y | 0.065 ± 0.1 |
| S13W | -0.033 ± 0.055 |
| S13G | 0.035 ± 0.052 |
| S13A | 0.153 ± 0.052 |
| S13E | 0.262 ± 0.066 |
| G19I | -1.12 ± 0.16 |
